We go through one molecule from publication PMC3134622 (Biochemistry, 2011).

The assay has as its target T1, GST-PBD46 (peptide derivative of p21-activated serine/threonine kinase, PAK Binding Domain 46).
T1 chain: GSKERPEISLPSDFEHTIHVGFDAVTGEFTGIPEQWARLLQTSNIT
The assay can be described thus: pull-down.

B1: Cdc42 wild type (natural protein)
chain: not shown
For the molecule B1, the “ΔI (pull-down band intensity, wild type:PBD46 relative to T35A:PBD46)” value was found to be 4.2 ± 0.59.
